Data on 36 variants can be found in the Human Domainome abundance scans (Beltran et al. 2025).

± gives the uncertainty stated by the source.

The chains are these.
B1: Far upstream element-binding protein 3, residues 75 to 150; numbered along this chain, Q96I24 (parent)
chain: RTVITEEFKVPDKMVGFIIGRGGEQISRIQAESGCKIQIASESSGIPERPCVLTGTPESIEQAKRLLGQIVDRCRN
B2: Storkhead-box protein 2, residues 64 to 141; numbered along this chain, Q9P2F5 (parent)
chain: SPISQSQFIPLGEILCLAISAMNSARKPVTQEALMEHLTTCFPGVPTPSQEILRHTLNTLVRERKIYPTPDGYFIVTP

The variants in the first series derive from B1. Nature of the series: abundance fitness (aPCA) (normalised: wild type 0, dead -1); higher = more abundant; growth selection in yeast, the domain comes from the species named. To be noted: Homo sapiens.
On to RTVITEEFKVPDKMVGFIIGRGGEQISRIQAESGCKIQIASESSGIPERPCVLTGTPESIEQAKRLLGQIVDRCEN, for which the abundance fitness turned out to be 0.047 ± 0.043.

As to RTVITEEFKVPDKMVGFIIGRGGEQISRIQAESGCKIQIASESSGIPERPCVLTGTPESIEQAKRLLGQIVDRCCN, the abundance fitness was -0.124 ± 0.055.

Take RTVITEEFKVPDKMVGFIIGRGGEQISRIQAESGCKIQIASESSGIPERPCVLTGTPESIEQAKRLLGQIVDRCAN: the abundance fitness stood at 0.064 ± 0.032.

Consider RTVITEEFKVPDKMVGFIIGRGGEQISRIQAESGCKIQIASESSGIPERPCVLTGTPESIEQAKRLLGQIVDRCKN, for which the abundance fitness came out at 0.043 ± 0.061.

RTVITEEFKVPDKMVGFIIGRGGEQISRIQAESGCKIQIASESSGIPERPCVLTGTPESIEQAKRLLGQIVDRCFN: the abundance fitness worked out at 0.003 ± 0.073.

Turning to RTVITEEFKVPDKMVGFIIGRGGEQISRIQAESGCKIQIASESSGIPERPCVLTGTPESIEQAKRLLGQIVDRCSN, the abundance fitness was -0.021 ± 0.035.

As to RTVITEEFKVPDKMVGFIIGRGGEQISRIQAESGCKIQIASESSGIPERPCVLTGTPESIEQAKRLLGQIVDRCRP, the abundance fitness came to 0.007 ± 0.059.

RTVITEEFKVPDKMVGFIIGRGGEQISRIQAESGCKIQIASESSGIPERPCVLTGTPESIEQAKRLLGQIVDRCRW: the abundance fitness was -0.092 ± 0.056.

As for RTVITEEFKVPDKMVGFIIGRGGEQISRIQAESGCKIQIASESSGIPERPCVLTGTPESIEQAKRLLGQIVDRCRQ, the abundance fitness was -0.145 ± 0.11.

As for RTVITEEFKVPDKMVGFIIGRGGEQISRIQAESGCKIQIASESSGIPERPCVLTGTPESIEQAKRLLGQIVDRCRC, the abundance fitness was -0.069 ± 0.06.

Take RTVITEEFKVPDKMVGFIIGRGGEQISRIQAESGCKIQIASESSGIPERPCVLTGTPESIEQAKRLLGQIVDRCRL: the abundance fitness was -0.028 ± 0.049.

For RTVITEEFKVPDKMVGFIIGRGGEQISRIQAESGCKIQIASESSGIPERPCVLTGTPESIEQAKRLLGQIVDRCRK, the abundance fitness was -0.183 ± 0.079.

In the case of RTVITEEFKVPDKMVGFIIGRGGEQISRIQAESGCKIQIASESSGIPERPCVLTGTPESIEQAKRLLGQIVDRCRH, the abundance fitness is -0.1 ± 0.076.

Take RTVITEEFKVPDKMVGFIIGRGGEQISRIQAESGCKIQIASESSGIPERPCVLTGTPESIEQAKRLLGQIVDRCRM: the abundance fitness is -0.008 ± 0.077.

For RTVITEEFKVPDKMVGFIIGRGGEQISRIQAESGCKIQIASESSGIPERPCVLTGTPESIEQAKRLLGQIVDRCRF, the abundance fitness amounted to 0.023 ± 0.1.

In the case of RTVITEEFKVPDKMVGFIIGRGGEQISRIQAESGCKIQIASESSGIPERPCVLTGTPESIEQAKRLLGQIVDRCRY, the abundance fitness is -0.027 ± 0.095.

Consider RTVITEEFKVPDKMVGFIIGRGGEQISRIQAESGCKIQIASESSGIPERPCVLTGTPESIEQAKRLLGQIVDRCRR, for which the abundance fitness is 0.055 ± 0.042.

Consider RTVITEEFKVPDKMVGFIIGRGGEQISRIQAESGCKIQIASESSGIPERPCVLTGTPESIEQAKRLLGQIVDRCRA, for which the abundance fitness came out at 0.036 ± 0.055.

In the case of RTVITEEFKVPDKMVGFIIGRGGEQISRIQAESGCKIQIASESSGIPERPCVLTGTPESIEQAKRLLGQIVDRCRT, the abundance fitness was -0.057 ± 0.061.

As to RTVITEEFKVPDKMVGFIIGRGGEQISRIQAESGCKIQIASESSGIPERPCVLTGTPESIEQAKRLLGQIVDRCRE, the abundance fitness is -0.025 ± 0.067.

Consider RTVITEEFKVPDKMVGFIIGRGGEQISRIQAESGCKIQIASESSGIPERPCVLTGTPESIEQAKRLLGQIVDRCRI, for which the abundance fitness was -0.178 ± 0.086.

Variants of B2 are the subject of another series. Described as above. Conditions: Homo sapiens.
For the variant TPISQSQFIPLGEILCLAISAMNSARKPVTQEALMEHLTTCFPGVPTPSQEILRHTLNTLVRERKIYPTPDGYFIVTP, the abundance fitness was -0.486 ± 0.14.

As for CPISQSQFIPLGEILCLAISAMNSARKPVTQEALMEHLTTCFPGVPTPSQEILRHTLNTLVRERKIYPTPDGYFIVTP, the abundance fitness was -0.178 ± 0.067.

For the variant KPISQSQFIPLGEILCLAISAMNSARKPVTQEALMEHLTTCFPGVPTPSQEILRHTLNTLVRERKIYPTPDGYFIVTP, the abundance fitness was -0.717 ± 0.15.

With HPISQSQFIPLGEILCLAISAMNSARKPVTQEALMEHLTTCFPGVPTPSQEILRHTLNTLVRERKIYPTPDGYFIVTP, the abundance fitness is -0.103 ± 0.2.

With EPISQSQFIPLGEILCLAISAMNSARKPVTQEALMEHLTTCFPGVPTPSQEILRHTLNTLVRERKIYPTPDGYFIVTP, the abundance fitness was -0.581 ± 0.24.

PPISQSQFIPLGEILCLAISAMNSARKPVTQEALMEHLTTCFPGVPTPSQEILRHTLNTLVRERKIYPTPDGYFIVTP: the abundance fitness was -0.469 ± 0.15.

Consider WPISQSQFIPLGEILCLAISAMNSARKPVTQEALMEHLTTCFPGVPTPSQEILRHTLNTLVRERKIYPTPDGYFIVTP, for which the abundance fitness was -0.83 ± 0.12.

As for RPISQSQFIPLGEILCLAISAMNSARKPVTQEALMEHLTTCFPGVPTPSQEILRHTLNTLVRERKIYPTPDGYFIVTP, the abundance fitness is -0.344 ± 0.1.

On to FPISQSQFIPLGEILCLAISAMNSARKPVTQEALMEHLTTCFPGVPTPSQEILRHTLNTLVRERKIYPTPDGYFIVTP, for which the abundance fitness was -0.092 ± 0.084.

Turning to DPISQSQFIPLGEILCLAISAMNSARKPVTQEALMEHLTTCFPGVPTPSQEILRHTLNTLVRERKIYPTPDGYFIVTP, the abundance fitness is -0.027 ± 0.19.

LPISQSQFIPLGEILCLAISAMNSARKPVTQEALMEHLTTCFPGVPTPSQEILRHTLNTLVRERKIYPTPDGYFIVTP: the abundance fitness was -0.207 ± 0.065.

In the case of MPISQSQFIPLGEILCLAISAMNSARKPVTQEALMEHLTTCFPGVPTPSQEILRHTLNTLVRERKIYPTPDGYFIVTP, the abundance fitness was -0.227 ± 0.15.

Turning to APISQSQFIPLGEILCLAISAMNSARKPVTQEALMEHLTTCFPGVPTPSQEILRHTLNTLVRERKIYPTPDGYFIVTP, the abundance fitness was -0.395 ± 0.083.

Consider GPISQSQFIPLGEILCLAISAMNSARKPVTQEALMEHLTTCFPGVPTPSQEILRHTLNTLVRERKIYPTPDGYFIVTP, for which the abundance fitness is -0.263 ± 0.054.

Take VPISQSQFIPLGEILCLAISAMNSARKPVTQEALMEHLTTCFPGVPTPSQEILRHTLNTLVRERKIYPTPDGYFIVTP: the abundance fitness was -0.354 ± 0.07.
